System: MS2 coat protein
Assay: apparent KD of MS2 coat protein; higher = weaker reporter binding
Settings: Eterna round: R107
How it was run: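 Designed RNA switches were transcribed on-chip from Illumina sequencing clusters. SNAP-549-labelled MS2 coat protein was titrated onto them in twofold steps from 0.7 or 1.5 nM to 3 µM in 100 mM Tris-HCl pH 7.5, 80 mM KCl, 4 mM MgCl2, either without or with constant ligand. Apparent KD reflects the per-design median of normalised cluster binding-curve fits.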

[1] = input ligand: theophylline 20 uM
[2] = input ligand: tryptophan 2.4 mM
[3] = input ligand: theophylline 2 mM

ACAUGAGGAUCACCCAUGUCACGGCACGAUACCAGCUGAUCCGGUGGCCCUUGGCAGCGUGACGUUUGGUCCCGCGGAUCACACG [semullin]
apparent KD of MS2 coat protein (input ligand: arginine 13.2 mM): 40 nM | apparent KD of MS2 coat protein [1]: 101 nM | apparent KD of MS2 coat protein [2]: 66.9 nM

CUACAUGGGCUCGAUACCAGUCAGCUCUCGCGUCUCUCAGACAUGAGGAUCACCCAUGUUGACCCUUGGCAGCGACGAUGUAGGC [theeternabot_exclusion_MS2_Theo_B_46]
apparent KD of MS2 coat protein (input ligand: arginine 13.2 mM): 51.1 nM | apparent KD of MS2 coat protein [1]: 123 nM | apparent KD of MS2 coat protein [2]: 83.9 nM

GGUUGGUGUAGAGAUAUAUUGAUUACUGAAGGAGCGGGAAAUAACCCAGGUAGGUCGCAGAGAUCCACAUGAGGAUCACCCAUGU [!0.K]
apparent KD of MS2 coat protein (input ligand: arginine 13.2 mM): 30.6 nM | apparent KD of MS2 coat protein (input ligand: none): 39.7 nM | apparent KD of MS2 coat protein [1]: 53 nM | apparent KD of MS2 coat protein [3]: 36.9 nM | apparent KD of MS2 coat protein [2]: 29.8 nM

GCUAGGUCAUCGGCCGCCACUAACGACGGCUCCAACAUGAGGAUCACCCAUGUGCCACAUGCGCAUAGGACCGGGAUGACCUAGC [SSTB NP+V+V2 #4]
apparent KD of MS2 coat protein (input ligand: arginine 13.2 mM): 25.6 nM | apparent KD of MS2 coat protein (input ligand: none): 36.9 nM | apparent KD of MS2 coat protein [1]: 55 nM | apparent KD of MS2 coat protein [3]: 45 nM | apparent KD of MS2 coat protein [2]: 14.6 nM

UAUAUUGUGAUGGAUACCAGCAGAGAAAACGUUUAUCCUAACAUGAGGAUCACCCAUGUAUGCCCUUGGCAGCUGUUGUGAUAUA [8.N]
apparent KD of MS2 coat protein (input ligand: arginine 13.2 mM): 47.6 nM | apparent KD of MS2 coat protein [1]: 73.9 nM | apparent KD of MS2 coat protein [2]: 61.1 nM

UGUGCAGGAUGCGUAAAGGGUCUUGGGCAUCGAGGACCGGUACGGCCGCCACUCGGCUGUACAUGAGGAUCACCCAUGUCAGGGU [#1 Same State - Tryptophan A Attempt #20 (HarryS)]
apparent KD of MS2 coat protein (input ligand: arginine 13.2 mM): 90.8 nM | apparent KD of MS2 coat protein (input ligand: none): 226 nM | apparent KD of MS2 coat protein [1]: 1060 nM | apparent KD of MS2 coat protein [3]: 393 nM | apparent KD of MS2 coat protein [2]: 271 nM

ACAUGAGGACCGGAUACCAGCCACACAACAUGAGGAUCACCCAUGUCCCAUGUAUGAGGAGGCCCUUGGCAGCCGACAUACAUGA [Exclusion - Theophylline B #1]
apparent KD of MS2 coat protein (input ligand: arginine 13.2 mM): 48.2 nM | apparent KD of MS2 coat protein (input ligand: none): 77.3 nM | apparent KD of MS2 coat protein [1]: 157 nM | apparent KD of MS2 coat protein [3]: 398 nM | apparent KD of MS2 coat protein [2]: 78.1 nM

CCUCAGCAAUUGGAUACCAGUACAUCGUAAGACAUGAGGAUCACCCAUGUGGGCUUGACAUACCCUUGGCAGCCAUCCUUGAUCC [theeternabot_sameState_MS2_Theo_B_3]
apparent KD of MS2 coat protein (input ligand: arginine 13.2 mM): 101 nM | apparent KD of MS2 coat protein [2]: 250 nM

UUUGAUAGGACAGAUACCAGCGUGUUGUUGAACAUGAGGAUCACCCAUGUAGUGAUCGAGCGCCCUUGGCAGCUGGUUUGUUAGG [7.O]
apparent KD of MS2 coat protein (input ligand: arginine 13.2 mM): 102 nM | apparent KD of MS2 coat protein [1]: 434 nM | apparent KD of MS2 coat protein [2]: 307 nM

AAUCAUGGAAACAUGACAUGAGGAUUACUCCGAGGACCGGUACGGCCGCCACUCGCGAGGAGGCGGACAUGAGGAUCACCCAUGU [#03 Tryptophan A Same State]
apparent KD of MS2 coat protein (input ligand: arginine 13.2 mM): 55.8 nM | apparent KD of MS2 coat protein [1]: 208 nM | apparent KD of MS2 coat protein [3]: 189 nM

UAUUCUGACACAGAUACCAGUCAAUUCCGUGGCAAGUGCUACAUGAGGAUCACCCAUGUCGACCCUUGGCAGCUGAAGAGAUACA [theeternabot_exclusion_MS2_Theo_B_50]
apparent KD of MS2 coat protein (input ligand: arginine 13.2 mM): 10.9 nM | apparent KD of MS2 coat protein [1]: 14.7 nM | apparent KD of MS2 coat protein [2]: 11.2 nM

GUCCUAGCGAUCGCUCGCUAGGACGCGGAUACCAGCGAGGUCCAUCGCCCUUGGCAGCCGAACAUGAGGAUCACCCAUGUCGGUA [#1 Same State - Theophylline A Attempt #18 (HarryS)]
apparent KD of MS2 coat protein (input ligand: arginine 13.2 mM): 8.4 nM | apparent KD of MS2 coat protein [1]: 14.2 nM | apparent KD of MS2 coat protein [2]: 10.2 nM

UACAUGAGGAUCACCCAUGUGUAGAGGGAUACCAGUGACAGUAAGCGCCCUUGGCAGCCCGUGAACAAUGGGUGAGCAAAAUAGU [#17 Exclusion-TheophyllineA]
apparent KD of MS2 coat protein (input ligand: arginine 13.2 mM): 41.4 nM | apparent KD of MS2 coat protein (input ligand: none): 19.4 nM | apparent KD of MS2 coat protein [1]: 233 nM | apparent KD of MS2 coat protein [3]: 25.6 nM | apparent KD of MS2 coat protein [2]: 44.7 nM

UUACAUGAGGAUCACCCAUGUCAUACAGAAGGAGCGUCACAUAAGACAGGUAGGUCGCUGUUAUUUCAUACUGUUAUAUCCUCUA [JR_Nu_ExcArginiA_Sub029]
apparent KD of MS2 coat protein (input ligand: arginine 13.2 mM): 30.1 nM | apparent KD of MS2 coat protein (input ligand: none): 40.3 nM | apparent KD of MS2 coat protein [1]: 56.2 nM | apparent KD of MS2 coat protein [3]: 47.1 nM | apparent KD of MS2 coat protein [2]: 40 nM

AGCCACUCGAGUGAUCCUCACGAGUGGCUACGAGGACCGGUACGGCCGCCACUCGAAUUAACAUGAGGAUCACCCAUGUAAUCUA [Brourdmod07]
apparent KD of MS2 coat protein (input ligand: arginine 13.2 mM): 22.5 nM | apparent KD of MS2 coat protein [1]: 227 nM | apparent KD of MS2 coat protein [3]: 196 nM

AACAUGAGGAUCACCCAUGUAUGUUCCGAAGGAGCGCCACAUGAGGCAGGUAGGUCGCGGGUACAUGAGGAUCACCCAUGUGUCA [Exclusion Arginine A 3]
apparent KD of MS2 coat protein (input ligand: arginine 13.2 mM): 56.5 nM | apparent KD of MS2 coat protein (input ligand: none): 113 nM | apparent KD of MS2 coat protein [1]: 170 nM | apparent KD of MS2 coat protein [3]: 128 nM | apparent KD of MS2 coat protein [2]: 174 nM

GGUAUGUAUUCGGAAACGAAUGCAUACCAACGAGGACCGGUACGGCCGCCACUCGGGCGGCGAUCACAUGAGGAUCACCCAUGUA [Ex Tryptophan A 2]
apparent KD of MS2 coat protein (input ligand: arginine 13.2 mM): 28 nM | apparent KD of MS2 coat protein [1]: 45.3 nM | apparent KD of MS2 coat protein [3]: 56.6 nM

UUGUACGAAACUGAUACCAGCCAGCAAUGCCACCAAGAGCACAUGAGGAUCACCCAUGUUGGCCCUUGGCAGCAGGACAAUAAGC [theeternabot_exclusion_MS2_Theo_B_3]
apparent KD of MS2 coat protein (input ligand: arginine 13.2 mM): 7.44 nM | apparent KD of MS2 coat protein [1]: 10.6 nM | apparent KD of MS2 coat protein [2]: 8.91 nM
